Drawing on publication PMC3025569, this text covers stoichiometry N for one substance.

The test has as its target ThaI restriction endonuclease (Thermoplasma acidophilum strain ATCC 25905). The test can be described thus: SEC. On the technique in general: In gel filtration, larger molecules generally elute earlier.

For orientation: stoichiometry N means the number of molecules, sites or subunits per partner or assembly. For ThaI restriction endonuclease (enzyme), the stoichiometry N was 2.
